In patent publication US20150023971A1:
Values belong to the binder of their own block, whether it stands above or below them.

Experiments:
[1] = target: purified human Sortilin extracellular domain (produced in stably transfected CHO cells) (human) (UniProt Q99523); experiment: SPR (Biacore), immobilised Sortilin extracellular domain (94 fmol/mm2); GST-pro-domain of proBDNF, upper panel of FIG. 7
[2] = target: T1, recombinant his-S-tagged pro-domain of human BDNF (residues Ala1-Arg110), from pET-30 Xa/LIC, E. coli (human) (UniProt P23560); experiment: SPR competition, 390 nM Sortilin with 300 uM peptide over immobilised pro-dom-BDNF
T1 sequence: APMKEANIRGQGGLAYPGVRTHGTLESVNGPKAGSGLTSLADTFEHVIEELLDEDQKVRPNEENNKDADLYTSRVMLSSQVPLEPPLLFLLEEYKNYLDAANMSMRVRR

Sequence of purified human Sortilin extracellular domain (produced in stably transfected CHO cells) (human) (Q99523 78-755 V650M limits assumed): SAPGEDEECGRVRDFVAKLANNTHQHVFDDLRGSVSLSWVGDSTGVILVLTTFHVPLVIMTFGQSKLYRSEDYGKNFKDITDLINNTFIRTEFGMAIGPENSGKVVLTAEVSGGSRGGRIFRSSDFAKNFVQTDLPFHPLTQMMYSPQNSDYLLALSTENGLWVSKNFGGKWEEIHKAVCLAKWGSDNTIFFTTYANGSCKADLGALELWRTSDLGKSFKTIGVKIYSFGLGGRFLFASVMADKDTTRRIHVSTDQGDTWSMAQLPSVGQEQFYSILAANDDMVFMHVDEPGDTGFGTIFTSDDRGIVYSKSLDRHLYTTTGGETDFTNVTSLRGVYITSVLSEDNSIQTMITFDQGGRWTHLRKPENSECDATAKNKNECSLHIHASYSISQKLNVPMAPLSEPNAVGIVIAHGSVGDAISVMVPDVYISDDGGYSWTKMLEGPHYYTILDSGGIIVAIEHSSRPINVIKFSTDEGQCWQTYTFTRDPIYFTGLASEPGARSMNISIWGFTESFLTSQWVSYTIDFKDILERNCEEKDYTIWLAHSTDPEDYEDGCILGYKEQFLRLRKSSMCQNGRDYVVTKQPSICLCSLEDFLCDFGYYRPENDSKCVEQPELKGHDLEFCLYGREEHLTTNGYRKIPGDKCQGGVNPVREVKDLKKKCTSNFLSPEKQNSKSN

Kd [1]: 58 nM
B1: pro-domain of human BDNF fused to GST (glutathione S-transferase), produced in E. coli (protein, not shown: a dimerising Fc or GST)
chain: T1 sequence

percent inhibition of Sortilin binding to pro-dom-BDNF [2]: 66%
Binder: RSSDFAKNFVQTDLPF [sortilin peptide … (synthetic, soluble)]
